From paper PMC7911018

Biological target: C8-αGFP chimera (anti-GFP CDRs grafted into the C8WT scaffold) fused to mCherry
Test: SEC; gel filtration after IMAC on Superdex 75 10/30 in PBS, pH 7.4, 1 mM DTT

- stoichiometry N: 2
B1: C8-αGFP chimera (anti-GFP CDRs grafted into the C8WT scaffold) fused to mCherry (VHH)
VHH: DVQLQASGGGLAQPGGSLRLSCAASGFPVNRYSMYWVRQAPGKGLEWVSSISSAGDRSSYYADSVKGRFTISRDNAKNTLYLQMNSLKLEDTALYFCAVNVGFEGQGTQVTVSS
